Results taken from paper PMC7299281.

Target: prefusion S protein of SARS-CoV (SARS-CoV)

| Substance | IC50 of neutralisation of SARS-CoV pseudovirus [mg/L] |
| --- | --- |
| COVA1-16 (antibody) | 2.5 |
| COVA2-02 (antibody) | 0.61 |
